# Measurements: patent publication US20030157712A1, “Methods for determining cell responses through EphB receptors” (priority 1997, published 2003)
# B1: ephrin-B1/Fc dimers: disulfide-linked immunoglobulin Fc fusion form of ephrin-B1 (protein)
# chain: LAKNLEPVSWSSLNPKFLSGKGLVIYPKIGDKLDIICPRAEAGRPYEYYKLYLVRPEQAAACSTVLDPNVLVTCNRPEQEIRFTIKFQEFSPNYMGLEFKKHHDYYITSTSNGSLEGLENREGGVCRTRTMKIIMKVGQDPNAVTPEQLTTSRPSKEADNTVKMATQAPGSRGSLGDSDGKHETVNQEEKSGPGASGGSSGDPDGFFNSK
# modifications: left off: a dimerising Fc or GST
# Experiments:
# P19 cells = assay: P19 attachment to nitrocellulose coated surfaces preadsorbed with ligand and fibronectin; type: cell-based, murine; conditions: 500 ng/well ligand with fibronectin 500 ng/well on nitrocellulose, 90 min at 37° C.
# Description: Specifically, nitrocellulose coated surfaces were preadsorbed with 500 ng/well of non-denatured ephrin-B1/Fc, either as dimer (LERK-2/Fc) or preclustered multimer (LERK2/FC+anti-Fc) or control protein (anti-Fc, BSA), with fibronectin (500 ng/well). P19 cells were plated and the % attached cells were assayed after a 90 min incubation at 37° C.
# [1] = test system: Grb2 and Grb10 and Nck recruitment to EphB1 complexes; assay: Recruitment of SH2-containing adapter proteins to EphB1 complexes; type: cell-based
# Description: (§1) Ligand stimulation and immunoprecipitation of endogenous EphB receptors. Primary HRMEC were used at passages 3-6, as described (12). P19 cells were cultured as recommended (ATCC, Rockville, Md.). Ninety min prior to ligand stimulation, cells (2×10^5cells/60 mm dish) were plated on Matrigel-(Collaborative Biomedical Products, Becton Dickinson, Bedford, Mass., as recommended) or fibronectin-coated (29) dishes. Ligand (ephrin-B1/Fc) or control (ORF/Fc) (30) multimers were generated by preincubation with anti-Fc at a fixed ratio of 0.1× the indicated concentrations of Fc fusion proteins [50 ng ml^−1 anti-Fc for 500 ng ml^−1 Fc fusion protein]. If not otherwise indicated, Fc fusion proteins (ephrinB1/Fc or ORF/Fc) were used at 500 ng ml^−1 in the absence or presence of preclustering anti-Fc at 50 ng ml^−1. Cells were incubated with agonists at 37° C. for 10 min, or as described in the figure legends. […] Precipitated proteins were analyzed by immunoblot (15).
# (§2) It was reasoned that alternative signaling responses mediated through EphB receptors might reflect differential association of additional receptor signaling complex components. […] Accordingly, EphB1 immunoprecipitates were analyzed for LMW-PTP immunoreactivity (11,17).
# EphB2 = target: T1, EphB2 (Homo sapiens, UniProt P29323); assay: EphB2 immunoprecipitation and phosphotyrosine immunoblot; type: cell-based; conditions: HRMEC; Fc fusion proteins 500 ng ml^−1
# T1 construct: EphB2 receptor immunoprecipitates (from HRMEC); endogenous in cells; host or cells: HRMEC
# T1 sequence (P29323 19-1055): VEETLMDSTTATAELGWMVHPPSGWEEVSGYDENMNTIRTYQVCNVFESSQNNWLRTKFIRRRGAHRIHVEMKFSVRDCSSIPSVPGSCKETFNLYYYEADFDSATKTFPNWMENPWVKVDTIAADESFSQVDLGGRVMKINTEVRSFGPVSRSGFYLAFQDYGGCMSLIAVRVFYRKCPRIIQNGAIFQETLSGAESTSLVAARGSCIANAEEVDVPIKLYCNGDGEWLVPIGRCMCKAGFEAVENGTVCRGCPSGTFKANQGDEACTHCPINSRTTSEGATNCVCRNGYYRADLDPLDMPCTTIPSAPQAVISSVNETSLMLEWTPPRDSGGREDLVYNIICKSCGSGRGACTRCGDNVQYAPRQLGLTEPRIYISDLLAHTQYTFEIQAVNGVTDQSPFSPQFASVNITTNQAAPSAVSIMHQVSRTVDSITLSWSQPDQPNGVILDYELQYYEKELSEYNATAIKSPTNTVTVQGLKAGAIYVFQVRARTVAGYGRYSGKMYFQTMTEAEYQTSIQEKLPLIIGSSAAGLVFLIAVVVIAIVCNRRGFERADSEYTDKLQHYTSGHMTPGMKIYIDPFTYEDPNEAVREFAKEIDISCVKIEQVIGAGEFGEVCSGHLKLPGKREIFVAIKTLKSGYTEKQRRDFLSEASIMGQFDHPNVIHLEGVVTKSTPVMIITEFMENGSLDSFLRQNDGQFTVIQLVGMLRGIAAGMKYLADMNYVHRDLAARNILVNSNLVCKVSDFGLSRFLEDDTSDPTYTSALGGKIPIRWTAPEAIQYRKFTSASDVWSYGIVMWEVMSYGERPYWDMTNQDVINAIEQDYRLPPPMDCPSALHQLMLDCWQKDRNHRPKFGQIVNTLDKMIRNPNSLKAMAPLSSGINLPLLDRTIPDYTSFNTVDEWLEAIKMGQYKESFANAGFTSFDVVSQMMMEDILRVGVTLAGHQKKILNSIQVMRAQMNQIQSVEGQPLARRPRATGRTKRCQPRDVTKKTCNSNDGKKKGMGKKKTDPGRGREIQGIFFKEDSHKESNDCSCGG
# Description: Ligand stimulation and immunoprecipitation of endogenous EphB receptors. Primary HRMEC were used at passages 3-6, as described (12). P19 cells were cultured as recommended (ATCC, Rockville, Md.). Ninety min prior to ligand stimulation, cells (2×10^5cells/60 mm dish) were plated on Matrigel-(Collaborative Biomedical Products, Becton Dickinson, Bedford, Mass., as recommended) or fibronectin-coated (29) dishes. Ligand (ephrin-B1/Fc) or control (ORF/Fc) (30) multimers were generated by preincubation with anti-Fc at a fixed ratio of 0.1× the indicated concentrations of Fc fusion proteins [50 ng ml^−1 anti-Fc for 500 ng ml^−1 Fc fusion protein]. If not otherwise indicated, Fc fusion proteins (ephrinB1/Fc or ORF/Fc) were used at 500 ng ml^−1 in the absence or presence of preclustering anti-Fc at 50 ng ml^−1. Cells were incubated with agonists at 37° C. for 10 min, or as described in the figure legends. Immunoprecipitations were conducted on either cell lysates (P19) or on Triticum vulgaris lectin affinity purified fractions of HRMEC (15) (needed to reduce the background from Matrigel). Precipitated proteins were analyzed by immunoblot (15).
# EphB1 and EphB2 immunoprecipitates from HRMEC stimulated with dimeric or multimeric (+anti-Fc) ephrin-B1/Fc were analyzed for receptor activation (anti-PY), and coprecipitation of heteromeric receptors (anti-EphB1, or anti-EphB2). […]
# [2] = test system: LMW-PTP recruitment to EphB1 and EphB2 complexes; assay: LMW-PTP recruitment to EphB1 and EphB2 complexes (co-immunoprecipitation, immunoblot); type: cell-based, human
# Description: as §1, §2
molecule,measurement,setting,value
B1,attachment of cells in preadsorbed wells,P19 cells,approximately 40%
same,"recruitment of Grb2, Grb10 and Nck to EphB1 complexes, dimeric vs multimeric ligand",[1],did not differ
same,tyrosine phosphorylation of EphB2,EphB2,stimulated
same,recruitment of 18 kDa tyrosine phosphoprotein (LMW-PTP) to EphB1 and EphB2 immunoprecipitates,[2],not
